To fix the notation:
B1: Dolichyl-diphosphooligosaccharide--protein glycosyltransferase subunit OST4 (Saccharomyces cerevisiae), Q99380 (parent)
chain: MISDEQLNSLAITFGIVMMTLIVIYHAVDSTMSPKN
partner: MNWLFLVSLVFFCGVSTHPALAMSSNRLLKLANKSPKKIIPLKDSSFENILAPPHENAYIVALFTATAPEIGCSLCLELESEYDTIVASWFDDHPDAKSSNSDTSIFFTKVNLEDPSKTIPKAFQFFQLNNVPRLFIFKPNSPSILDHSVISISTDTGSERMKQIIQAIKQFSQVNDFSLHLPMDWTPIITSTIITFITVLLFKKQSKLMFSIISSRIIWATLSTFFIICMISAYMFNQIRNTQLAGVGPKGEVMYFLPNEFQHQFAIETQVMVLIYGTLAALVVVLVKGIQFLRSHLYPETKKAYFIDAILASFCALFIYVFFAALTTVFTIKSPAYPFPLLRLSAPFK
B2: Dolichyl-diphosphooligosaccharide--protein glycosyltransferase subunit OST4 (Saccharomyces cerevisiae), Q99380 (parent)
chain: B1 chain
partner: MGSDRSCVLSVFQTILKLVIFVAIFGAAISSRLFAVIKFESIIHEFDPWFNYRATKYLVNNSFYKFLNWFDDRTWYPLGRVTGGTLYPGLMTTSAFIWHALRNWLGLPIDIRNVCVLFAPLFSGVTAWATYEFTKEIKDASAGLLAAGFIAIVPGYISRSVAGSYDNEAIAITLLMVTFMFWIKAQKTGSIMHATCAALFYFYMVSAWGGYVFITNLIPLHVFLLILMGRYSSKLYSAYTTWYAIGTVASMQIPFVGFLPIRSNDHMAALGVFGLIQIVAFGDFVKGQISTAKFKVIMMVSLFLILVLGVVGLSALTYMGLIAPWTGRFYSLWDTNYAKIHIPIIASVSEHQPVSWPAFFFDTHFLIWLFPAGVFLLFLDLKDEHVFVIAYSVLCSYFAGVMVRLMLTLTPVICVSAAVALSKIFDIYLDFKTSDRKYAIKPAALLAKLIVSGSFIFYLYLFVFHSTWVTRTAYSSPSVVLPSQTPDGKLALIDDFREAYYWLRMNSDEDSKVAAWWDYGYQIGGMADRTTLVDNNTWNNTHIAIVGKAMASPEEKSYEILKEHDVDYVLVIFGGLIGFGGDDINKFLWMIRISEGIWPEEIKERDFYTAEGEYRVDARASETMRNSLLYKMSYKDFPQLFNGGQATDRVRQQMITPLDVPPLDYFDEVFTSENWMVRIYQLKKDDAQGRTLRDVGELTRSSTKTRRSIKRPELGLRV

The text below walks through data of IntAct's records for PubMed 10677492.

Variants of B1 are the subject of one experiment. The note with it: with ost3_yeast OST3, P48439.
Take MISDEQLNSLAITFGIVMKTLIVIYHAVDSTMSPKN: the “effect of a mutation on the interaction” value is given as “disrupting interaction”.
In the case of MISDEQLNSLAITFGIVKMTLIVIYHAVDSTMSPKN, the “effect of a mutation on the interaction” value is reported as “disrupting interaction”.
Take MISDEQLNSLAITFGIVMMTKIVIYHAVDSTMSPKN: the “effect of a mutation on the interaction” value is given as “disrupting interaction”.
On the same count and under the same terms, next, MISDEQLNSLAITFGIVMMTLIVKYHAVDSTMSPKN: “disrupting interaction”.
MISDEQLNSLAITFGIVMMTLIKIYHAVDSTMSPKN: the “effect of a mutation on the interaction” value is recorded as “disrupting interaction”.
For MISDEQLNSLAITFGIVMMKLIVIYHAVDSTMSPKN, the “effect of a mutation on the interaction” value was “disrupting interaction”.

Variants of B2 are the subject of another experiment. The settings on record: with stt3_yeast STT3, P39007.
Turning to MISDEQLNSLAITFGIVMMTKIVIYHAVDSTMSPKN, the “effect of a mutation on the interaction” value is on record as “disrupting interaction”.
On to MISDEQLNSLAITFGIVMMTLIVKYHAVDSTMSPKN, for which the “effect of a mutation on the interaction” value is on record as “disrupting interaction”.
Turning to MISDEQLNSLAITFGIVKMTLIVIYHAVDSTMSPKN, the “effect of a mutation on the interaction” value is recorded as “disrupting interaction”.
